Target: CD20 on Raji cells (CD20+) or K562-CD20 cells (UniProt P11836)
Experiment: cell-based or functional assay

“anti-CD20 TAC (anti-CD20 scFv (Leu-16)-(GGGGS)3-huUCHT1.Y177T-GGGGS-CD4)” showed a cytotoxicity on target cells (luciferase assay), MACS-sorted TCRαβ negative CD20 TAC-T cells of 54.6%.
“anti-CD20 chimeric TCR (anti-CD20 scFv (Leu-16)-(GGGGS)3-CD3epsilon)” showed a cytotoxicity on target cells (luciferase assay), MACS-sorted TCRαβ negative CD20 cTCR-T cells of 49.2%.
